The test system of data set [1] is dSH-SY5Y cells. Briefly: ReadyProbes cell viability assay (cell death) after exposure to dGAE. It counts as cell-based. The following applies: 24 h incubation; for percentage cell death: 1 μM, buffer only 21.6±1.6%. The protocol:
(§1) Undifferentiated SH-SY5Y human neuroblastoma cells were grown in Dulbecco's Modified Eagle Medium/Nutrient Mixture F-12 (DMEM/F-12) supplemented with 10% Foetal Calf Serum (FCS), 1% Penicillin/Streptomycin (P/S) and 1% L-glutamine. For differentiation, SH-SY5Y cells were plated at a density of 50,000 cells per well in 24-well plates or 300,000 cells per well in 6-well plates. For immunofluorescence, cells were plated onto Menzel-Gläser coverslips (Thermo Scientific). For live-cell imaging, cells were plated on 35-mm dishes on a 1.5-mm coverslip (Mattek). On the first day of differentiation, media was replaced with low-serum culture media (DMEM/F-12 containing 1% FCS, 1% P/S and 1% L-glutamine) containing 10 μM all-trans retinoic acid (RA) (Sigma-Aldrich) and cells were incubated for 48 h. On day 3, this process was repeated with fresh RA and cells were incubated for a further 48 h. On day 5, the cells were washed once in serum-free culture media to remove traces of serum. […] Differentiated cells (dSH-SY5Y) were ready to use for experiments on day 7. […]
Following the addition of dGAE, cell viability was measured using ReadyProbes® Cell Viability Imaging Kit (Life Technologies). […] DAPI fluorescence was captured using a G 365 excitation filter and a LP 420 emission filter with a FT 395 dichroic. Green fluorescence was captured using a FITC filter set (BP 450-490 excitation filter, BP 515-565 emission filter and FT 510 dichroic). Identical acquisition settings were used for all replicates and images were analysed using FIJI. Six fields of view were taken per sample and an average of 4500 cells were analysed per condition. The proportion of buffer-treated cell death was quantified by converting the images to grayscale followed by manually adjusting the threshold and converting it into a binary image to highlight live DAPI-stained cells. The number of cells was automatically counted. The dead cells were counted in the same way and cell death was expressed as a percentage of buffer-treated cells. […]

Data set [2] deals with dSH-SY5Y cells. Briefly: Internalisation of dGAE-488 into cells by confocal microscopy. The following applies: soluble form, 5 μM dGAE-488, live confocal imaging t=0 h to 14 h. It counts as cell-based, human. The protocol:
as §1
FIJI (https://fiji.sc) imaging processing package (J. Schindelin et al., Nat. Methods, vol. 9, no. 7, pp. 676-682, (2012)) was used for all image analysis. For quantification of fluorescence intensities, images were Z-projected to maximal intensity. […] Area-integrated intensity and mean grey value were measured as well as three selections from around the cell with no fluorescence (background). The corrected total cell fluorescence (CTCF) was then calculated using the equation: […]
For quantification of internalised dGAE-488, a focal plane from the middle of the cell that contained maximal DAPI fluorescence was selected and subjected to analysis.
The uptake of soluble and aggregated dGAE into dSH-SY5Y cells was investigated in order to examine whether aggregation state affects the efficiency of internalisation. The labelled dGAE-488 form was used to permit uptake to be visualised and measured having corrected for total cell fluorescence. […]

Turning to “dGAE: recombinant truncated tau, 95 residues fragment of Tau (2N4R), Ile-297 to Glu-391, SEQ ID NO: 4”, the percentage cell death in data set [1] (aggregated dGAE (100 μM agitated 72 h)) is 34±2.9%; in data set [1] (soluble dGAE (0 h, no agitation)), 24.1±1.2%. Further, the “cell death on increasing concentration” value in data set [1] (soluble dGAE up to 20 μM) is reported as “no further increase in cell death”. The “incubation time at which internalised protein is detected in cells” value in data set [2] is reported as at most 2 h.

These data come from patent US20230266303A1, “SYSTEM” (GTINVENT LIMITED, priority 2020, published 2023).
